In test [1] the target is T1, recombinantly expressed human NOGO-A (hNOGO) (human, UniProt Q9NQC3 586-785, limits assumed).
T1 sequence (looked up): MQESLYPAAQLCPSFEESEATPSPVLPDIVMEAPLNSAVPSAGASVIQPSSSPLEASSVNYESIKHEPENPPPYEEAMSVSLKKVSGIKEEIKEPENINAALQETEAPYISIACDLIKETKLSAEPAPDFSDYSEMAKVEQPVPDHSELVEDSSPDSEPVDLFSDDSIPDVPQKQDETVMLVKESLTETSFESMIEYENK
The experiment in a line: SPR, Biacore3000; hNOGO amine-coupled to CM5 chip, antibody in solution. On the procedure: The binding kinetics of the anti-NOGO monoclonal antibody (mAb) to recombinantly expressed human NOGO-A (hNOGO) was analysed using the Biacore3000 biosensor. The methodology was as followed:
hNOGO was immobilised to a CM5 chip by primary amine coupling using the Biacore Wizard program designed for targeted immobilisation levels. The CM5 sensor surface was activated by passing a solution of 50 mM N-hydroxy-succinimide (NHS) and 200 mM N-ethyl-N′-dimethylaminopropyl carbonide (EDC). Then using a 300 nM solution of hNOGO in 5 mM sodium acetate, pH5.0, a range of concentrations between 50-200 resonance units of hNOGO were immobilised. After immobilisation was complete any still activated esters were blocked by an injection of 1 M ethanolamine hydrochloride, pH8.5.
The H1L11 mAb (see example 8) was diluted down in HBS-EP (10 mM HEPES, pH 7.4, 150 mM NaCl, 3 mM EDTA, and 0.005% P-20 surfactant) and binding studies were carried out at concentrations ranging between 0.1-100 nM. For kinetic analysis a flowrate of 60 μl/minute was used, with no mass transfer effects seen. All concentrations were performed in duplicate, in a random order with buffer blanks included. Regeneration was achieved either by the single injection of a 15 μl pulse of 50 mM sodium hydroxide alone or the injection of 15 μl of 100 mM H₃PO₄, followed by a subsequent injection of 15 μl of 50 mM sodium hydroxide. […] All runs were referenced against a blanked sensor surface (one that had been activated and blocked as described earlier but had no addition of ligand). Analysis of binding was carried out using the BIAevaluation kinetic analysis software version 4.1. Biacore analysis of other antibodies of the invention essentially followed the same protocol as described herein.

Test [2] deals with T2, GST-human NOGO-A56 fusion protein (amino acids 586-785 of human NOGO-A) (human, UniProt Q9NQC3 586-786).
T2 construct: Expressed in E. coli BL21 and purified on glutathione-sepharose; Coated on plates for the ELISAs and dried onto wells for the neurite outgrowth assay; also called GST-NOGO-A56; GST-Nogo5&6
T2 sequence: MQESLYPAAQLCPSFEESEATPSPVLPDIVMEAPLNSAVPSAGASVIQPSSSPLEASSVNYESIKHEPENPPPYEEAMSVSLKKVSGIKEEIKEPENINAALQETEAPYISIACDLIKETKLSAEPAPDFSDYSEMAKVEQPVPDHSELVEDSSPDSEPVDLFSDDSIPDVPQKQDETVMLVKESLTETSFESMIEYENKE
The experiment in a line: ELISA; GST-human NOGO-A56 coated at 1 µg/ml, anti-human kappa peroxidase detection. On the procedure:
GST-human NOGO-A56 at 1 μg/ml in 50 mM Tris pH9.5 was coated onto Nunc Immunosorp plates (100 μl per well) at 4° C. overnight. Wells were rinsed once with TBS+0.05% tween then incubated with 2% BSA in TBS+0.05% tween to block non-specific binding sites at room temperature for Ihour. Antibodies were diluted in TBS+0.05% tween+2% BSA to 10 μg/ml and ½ dilutions made from this. Antibodies were added to wells in duplicate and incubated at room temperature for 1 hour. Wells were washed three times with TBS+0.05% tween then incubated with anti-human kappa peroxidase conjugate (1:2000) for 1 hour. Washed three times with TBS+0.05% tween and then incubated with 100 μl OPD peroxidase substrate (Sigma) per well for 10 minutes. The colour reaction was stopped by the addition of 25 μl concentrated H₂SO₄. Optical density at 490 nm was measured using a plate reader. Background values read from wells with no antibody were subtracted.
FIGS. 35A to C illustrates the dose-dependent binding of humanised antibody H1L11 in comparison with the chimera (HcLc) to human NOGO-A56 in an ELISA assay.

Another test deals with T3, rat NOGO-A (rat, UniProt Q9JK11 173-975, limits assumed).
T3 construct: Used in 'a similar analysis' by Biacore
T3 sequence (looked up): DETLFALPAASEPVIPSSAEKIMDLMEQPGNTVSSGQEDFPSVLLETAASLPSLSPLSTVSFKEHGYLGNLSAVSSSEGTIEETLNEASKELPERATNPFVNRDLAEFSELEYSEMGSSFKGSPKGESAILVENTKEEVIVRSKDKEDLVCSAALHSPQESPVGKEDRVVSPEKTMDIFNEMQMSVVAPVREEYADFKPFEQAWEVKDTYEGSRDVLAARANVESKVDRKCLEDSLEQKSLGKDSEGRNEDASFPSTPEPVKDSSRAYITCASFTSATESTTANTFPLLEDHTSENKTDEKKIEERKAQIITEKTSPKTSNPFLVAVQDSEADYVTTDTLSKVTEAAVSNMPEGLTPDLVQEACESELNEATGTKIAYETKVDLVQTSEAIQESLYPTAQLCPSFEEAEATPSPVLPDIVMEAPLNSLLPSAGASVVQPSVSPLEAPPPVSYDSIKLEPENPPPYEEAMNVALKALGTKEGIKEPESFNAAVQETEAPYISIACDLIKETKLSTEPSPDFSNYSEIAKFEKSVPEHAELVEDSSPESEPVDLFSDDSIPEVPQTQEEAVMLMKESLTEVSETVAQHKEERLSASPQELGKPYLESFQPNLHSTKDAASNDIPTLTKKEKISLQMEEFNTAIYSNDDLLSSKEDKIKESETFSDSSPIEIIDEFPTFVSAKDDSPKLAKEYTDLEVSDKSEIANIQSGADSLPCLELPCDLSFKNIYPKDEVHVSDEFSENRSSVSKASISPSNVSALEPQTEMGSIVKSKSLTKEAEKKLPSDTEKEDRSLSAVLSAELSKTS
The experiment in a line: SPR, Biacore; similar analysis using rat NOGO-A. Background: Surface plasmon resonance follows binding to a sensor surface in real time, without labels.

Substitutions are numbered along the chain they refer to.

B1: Chimeric 2A10 (HcLc) (antibody, human IgG1, kappa, V domains shown)
VH: QVQLQQPGTELVKPGASVKLSCKASGYTFTSYWMHWVKQRPGQGLEWIGNINPSNGGTNYNEKFKSKATLTVDKSSSTAYMQLSSLTSEDSAVYYCELGQGYWGQGTLVTVSS
VL: DIVITQDELSNPVTSGESVSISCRSSKSLLYKDGKTYLNWFLQRPGQSPQLLIYLMSTRASGVSDRFSGSGSGTDFTLEISRVKAEDVGVYYCQQLVEYPLTFGAGTKLELKR
notes: Murine 2A10 V regions on human IgG1/k wild type C regions; also called chimaera of 2A10; the chimera
For B1, in test [1], the dissociation constant Kd (as a rule, the concentration at which binding is half-saturated) amounted to 1.26 nM; the koff (commonly the rate constant with which the complex falls apart) stood at 0.00249 s⁻¹; the kon (commonly the second-order rate constant of association) worked out at 2.23e+06 M⁻¹ s⁻¹. In addition, in test [2], the concentration for a half-maximal effect (EC50) (commonly the concentration at which the effect is half-maximal) was 0.022 µg/mL.

B2: Anti-NOGO antibody 2A10/3 (mouse monoclonal) (antibody, V domains shown)
VH: B1 VH with L108T, V109L
VL: DIVITQDELSNPVTSGESVSISCRSSKSLLYKDGKTYLNWFLQRPGQSPQLLIYLMSTRASGVSDRFSGSGSGTDFTLEISRVKAEDVGVYYCQQLVEYPLTFGAGTKLELK
notes: Mouse hybridoma antibody; also called Mouse 2A10; 2A10-BR
On to B2, for which, in the test with rat NOGO-A, binding was put at a Kd of 1 nM, the dissociation rate constant (koff) amounted to 0.00101 s⁻¹ and the association rate constant (kon) worked out at 1.26e+06 M⁻¹ s⁻¹. In addition, in test [1], the Kd is 0.8 nM, the koff turned out to be 0.00184 s⁻¹ and the kon came out at 2.9e+06 M⁻¹ s⁻¹.

B3: Anti-NOGO antibody 2C4/1 (mouse monoclonal) (antibody, V domains shown)
VH: EVQLVESGGGLVKPGGSLKLSCAASGFTFSCYAMSWVRQTPEKRLEWVASISDGGSYTYYPDNVKGRFTISRDNAKNNLYLQMSHLKSEDTAMYYCAKELLFDYWGQGTTLTVSS
VL: DVVMTQTPLSLPVSLGDQASISCRSSQSLVHSNGNTYLHWYLQKPGQSPKLLIYKVSNRFSGVPDRFSGSGSGTDFTLKISRVEAEDLGVYFCSQSTHVPLTFGAGTKLELK
notes: Mouse hybridoma antibody; also called Mouse 2C4
In the test with rat NOGO-A, B3 gave a Kd of 3.9 nM, a koff of 0.000533 s⁻¹ and an on-rate constant (kon) of 162000 M⁻¹ s⁻¹. For the same molecule, in test [1], the dissociation constant Kd was determined as 8 nM, the koff is 0.000644 s⁻¹ and the on-rate constant (kon) came out at 80900 M⁻¹ s⁻¹.

B4: Anti-NOGO antibody 15C3/3 (mouse monoclonal) (antibody, V domains shown)
VH: QVQLQQSGAELVKPGASVKISCKASGYAFSSYWMNWVKQRPGKGLEWIGQIYPGDGDTNYNGKFKGKATLTADKSSSTAYMQLSSLTSEDSAVYFCAVRFDYWGQGTTLTVSS
VL: DIVMTQAAPSVPVTPGESVSISCRSSKSLLHSNGNTYLYWFLQRPGQSPQLLIYRMSNLASGVPDRFSGSGSGTAFTLRISRVEAEDVGVYYCMQHLEYPLTFGAGTKLELK
notes: Mouse hybridoma antibody; also called Mouse 15C3
In the test with rat NOGO-A, B4 gave a Kd of 24.9 nM, a koff of 0.00087 s⁻¹ and a kon of 46000 M⁻¹ s⁻¹. Besides, in test [1], the equilibrium dissociation constant (Kd) was 17.5 nM, the koff was found to be 0.000828 s⁻¹ and the kon turned out to be 40700 M⁻¹ s⁻¹.

B5: Humanised anti-NOGO antibody H1L11 (antibody, V domains shown)
VH: QVQLVQSGAEVKKPGASVKVSCKASGYTFTSYWMHWVRQAPGQGLEWMGNINPSNGGTNYNEKFKSRVTMTRDTSTSTVYMELSSLRSEDTAVYYCELGQGYWGQGTTVTVSS
VL: DIVITQSPLSLPVTLGQPASISCRSSKSLLYKDGKTYLNWFQQRPGQSPQLLIYLMSTRASGVPDRFSGGGSGTDFTLKISRVEAEDVGVYYCQQLVEYPLTFGQGTKLEIK
notes: It was expressed transiently in CHO cells; also called H1l L11
Consider B5, for which, in test [1], the dissociation constant Kd was determined as 22.2 nM, the off-rate (koff) was found to be 0.0215 s⁻¹ and the association rate constant (kon) is 1e+06 M⁻¹ s⁻¹. For the same molecule, the EC50 in test [2] is 0.118 µg/mL.

The record behind these values is patent US20070065430A1 (GlaxoSmithKline, published 2007).
